Here are results for 2 molecules from patent US20180142032A1 (Sanofi, published 2018).

Several values for one entry are separate records, joined by “and”; a condition that tells them apart may be missing. Identical values can stand only once.

The target of experiment [1] is T1, human LAMP1 at the cell surface (human, UniProt P11279 29-417).
T1 sequence: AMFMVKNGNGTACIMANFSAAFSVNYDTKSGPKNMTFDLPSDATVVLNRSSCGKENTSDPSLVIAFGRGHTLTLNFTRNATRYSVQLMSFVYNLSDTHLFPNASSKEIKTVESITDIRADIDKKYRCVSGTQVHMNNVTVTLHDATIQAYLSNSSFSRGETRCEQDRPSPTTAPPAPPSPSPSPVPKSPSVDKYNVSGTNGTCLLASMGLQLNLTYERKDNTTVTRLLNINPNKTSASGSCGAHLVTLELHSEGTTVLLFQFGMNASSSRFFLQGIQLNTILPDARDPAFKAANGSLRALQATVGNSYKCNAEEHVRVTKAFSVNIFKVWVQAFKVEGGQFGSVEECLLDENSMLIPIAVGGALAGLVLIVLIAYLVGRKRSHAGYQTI
The experiment in a line: cell-based or functional assay.

For experiment [2], the target named is T2, hLAMP1_ΔGYQTI (human, UniProt P11279 29-412).
T2 construct: also called pXL5626
T2 sequence: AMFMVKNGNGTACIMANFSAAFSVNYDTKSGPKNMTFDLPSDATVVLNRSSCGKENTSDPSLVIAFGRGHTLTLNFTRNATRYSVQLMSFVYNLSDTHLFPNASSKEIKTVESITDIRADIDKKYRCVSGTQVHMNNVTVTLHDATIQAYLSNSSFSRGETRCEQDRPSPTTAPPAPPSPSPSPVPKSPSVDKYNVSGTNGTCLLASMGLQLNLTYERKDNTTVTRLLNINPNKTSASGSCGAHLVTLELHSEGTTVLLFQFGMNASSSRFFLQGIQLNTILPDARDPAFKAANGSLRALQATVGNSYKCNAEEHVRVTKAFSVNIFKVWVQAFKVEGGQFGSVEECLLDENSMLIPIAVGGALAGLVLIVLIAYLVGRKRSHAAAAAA
The experiment in a line: flow cytometry, transfected 293-F cells. (In general: In flow cytometry, cells or beads pass a laser one at a time.)

Experiment [3] has as its target T1, human LAMP1 at the cell surface. The experiment in a line: flow cytometry, transiently transfected HEK293 cells. The text has this:
(§1) LAMP1 Coding DNA Sequence, RefSeq NM_005561.3 (SEQ ID NO: 23) was cloned internally. The CDS of Macaca mulatta LAMP1, RefSeq XP_001087801 (SEQ ID NO: 27) was also cloned internally. […] Therefore the secreted LAMP1 used in the following example is referred to cynomolgus monkey. Both CDS were cloned into mammalian expression plasmids under CMV enhancer/promoter and SV40 polyA signals. HEK293 cells (Invitrogen; #K9000-10.) were transiently transfected with human LAMP1 or cynomolgus LAMP1 plasmids using FreeStyle™ MAX 293 Expression System according to the manufacturer's instructions. […] 100 μL/well of goat anti-mouse IgG conjugated with Alexa647 (Invitrogen; # A2135) was added for 45 min at 4° C. and washed three times with PBS 1% BSA. The antibody binding was evaluated after centrifugation and resuspension of cells by adding 200 μl/well PBS 1% BSA and read using Guava® easyCyte™ 8HT Flow Cytometry System. EC50 values were estimated using BIOST@T-SPEED software.

In experiment [4] the target is T3, cynomolgus monkey LAMP1 at the cell surface (cynomolgus monkey, UniProt P11279 29-417 (human entry)).
T3 construct: also called cynoLAMP1; cynomolgus LAMP1
T3 chain: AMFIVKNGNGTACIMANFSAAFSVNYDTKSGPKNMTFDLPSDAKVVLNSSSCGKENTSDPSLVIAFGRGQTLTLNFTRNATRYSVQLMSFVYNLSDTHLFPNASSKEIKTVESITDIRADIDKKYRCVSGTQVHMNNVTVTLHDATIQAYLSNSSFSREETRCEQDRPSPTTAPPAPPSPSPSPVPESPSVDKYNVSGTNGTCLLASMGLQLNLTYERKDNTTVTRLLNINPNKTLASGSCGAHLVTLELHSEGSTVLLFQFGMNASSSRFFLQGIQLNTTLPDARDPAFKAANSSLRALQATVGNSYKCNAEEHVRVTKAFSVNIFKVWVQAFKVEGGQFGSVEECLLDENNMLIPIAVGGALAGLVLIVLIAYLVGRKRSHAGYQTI
Described as above.
Description: as §1

In experiment [5] the target is T1, human LAMP1 at the cell surface. Briefly: flow cytometry, HCT116 stable clones; human LAMP1 on recombinant HCT116 stable clones. Here is the method:
(§2) HCT116 cells were infected by a lentiviral vector allowing stable integration of the human or the cynomolgus LAMP1 CDS in genomic DNA of cells. Individual clones with different densities of human or cynomolgus LAMP1 cell surface localization were derived from a pool of HCT116 infected cells. […] 100 μL/well of goat anti-human IgG conjugated with Alexa488 (Invitrogen; # A11013) was added for 1 h at 4° C. and washed two times with PBS 1% BSA. The antibody binding was evaluated after centrifugation and resuspension of cells in 100 μl fixing solution (paraformaldehyde at 4% in PBS). Samples were read using Galaxy® Flow Cytometry System (Partec). EC50 values were estimated using BIOST@T-SPEED software.

Experiment [6] has as its target T3, cynomolgus monkey LAMP1 at the cell …. The experiment in a line: flow cytometry, HCT116 stable clones; cynomolgus LAMP1 on recombinant HCT116 stable clones. The procedure:
as §2

Experiment [7] has as its target T1, human LAMP1 at the cell surface. Briefly: flow cytometry, dissociated CR-IGR-034P colon PDX cells; CR-IGR-034P colon tumor cells. The procedure:
Advanced human primary colon tumor CR-IGR-034P was obtained from Patient-derived xenograft in mice. Tumor CR-IGR-034P was enzymatically dissociated using collagenase Type IV (Invitrogen; #17104-019) and deoxyribonuclease I (Invitrogen; #18047-019) for 1 h at 4° C. Cell viability was estimated by Viacount application using Guava® easyCyte™ 8HT Flow Cytometry System. […] 100 μL/well of goat anti-mouse IgG conjugated with Alexa647 (Invitrogen; # A2135) or goat anti-human IgG conjugated with Alexa488 (Invitrogen; # A11013) was added for 45 min at 4° C. and washed three times with PBS 1% BSA. The antibody binding was evaluated after centrifugation and resuspension of cells by adding 200 μl/well PBS 1% BSA and read using Guava® easyCyte™ 8HT Flow Cytometry System. EC50 values were estimated using BIOST@T-SPEED software.

B1: huMAb1_1 (antibody, human IgG1, kappa)
heavy: not shown
light: DIQMTQSPSSLSASVGDRVTITCKASQDIDRYMAWYQDKPGKAPRLLIHDTSTLQSGVPSRFSGSGSGRDYTLTISNLEPEDFATYYCLQYDNLWTFGGGTKVEIKRTVAAPSVFIFPPSDEQLKSGTASVVCLLNNFYPREAKVQWKVDNALQSGNSQESVTEQDSKDSTYSLSSTLTLSKADYEKHKVYACEVTHQGLSSPVTKSFNRGEC
notes: humanized, VH1-huIgG1 and VL1-huCk
Regarding B1, in experiment [1], the “ADCP EC50, 3/1, batch 67130713495” value was 470 pM and 360 pM; the “ADCP EC50, 3/1, batch 67131354967” value stood at 500 pM; the “ADCP EC50, 3/1, batch 67131617470” value is 560 pM; the “ADCP EC50, 6/1, batch 67130713495” value was 980 pM and 340 pM. Also, the “ADCP EC50, macrophages/target 3/1, batch 67131617438” value in experiment [1] came to 280 pM. This molecule also came in with a mean fluorescence in experiment [2] of 864.

B2: MAb1 (antibody, mouse IgG2a, kappa)
heavy: QVQLQQSGAELVKPGASVKMSCKASGYIFTNYNIHWVKKSPGQGLEWIGAIYPGNGDAPYSQKFKDKATLTADKSSSTTYMQLSRLTSEDSAVYYCVRANWDVAFAYWGQGTLVSVSAAKTTAPSVYPLAPVCGDTTGSSVTLGCLVKGYFPEPVTLTWNSGSLSSGVHTFPAVLQSDLYTLSSSVTVTSSTWPSQSITCNVAHPASSTKVDKKIEPRGPTIKPCPPCKCPAPNLLGGPSVFIFPPKIKDVLMISLSPIVTCVVVDVSEDDPDVQISWFVNNVEVHTAQTQTHREDYNSTLRVVSALPIQHQDWMSGKEFKCKVNNKDLPAPIERTISKPKGSVRAPQVYVLPPPEEEMTKKQVTLTCMVTDFMPEDIYVEWTNNGKTELNYKNTEPVLDSDGSYFMYSKLRVEKKNWVERNSYSCSVVHEGLHNHHTTKSFSRTPGK
light: DIQMTQSPPSLSASLGGKVTITCKASQDIDRYMAWYQDKPGKGPRLLIHDTSTLQPGIPSRFSGSGSGRDYSFSISNLEPEDIATYYCLQYDNLWTFGGGTKLEIKRADAAPTVSIFPPSSEQLTSGGASVVCFLNNFYPKDINVKWKIDGSERQNGVLNSWTDQDSKDSTYSMSSTLTLTKDEYERHNSYTCEATHKTSTSPIVKSFNRNEC
notes: murine monoclonal IgG, kappa, from hybridoma; also called murine MAb1
Regarding B2, the EC50 (as a rule, the midpoint of the concentration-response curve) in experiment [3] was 14000 pM; in experiment [4] it was 44000 pM; in experiment [5] it was 4900 pM; in experiment [6] it was 5500 pM; in experiment [7] it was 5000 pM.
